Common to all, as to test: EMSA
In general terms: In EMSA bound probe runs differently from free probe, usually more slowly.

Series [1] concerns the target Rec114(388-428) K403A/K407A;Mei4N (Saccharomyces cerevisiae;Saccharomyces cerevisiae) (UniProt P29467). As to conditions: EMSA: 25 mM Tris-HCl pH 7.4, 100 mM NaCl, 5 ng DNA, 20 min, room temperature; AFM: 25 mM HEPES-NaOH pH 7.4, 5 mM MgCl2, 50 mM NaCl, 10% glycerol, 30 min, RT ….
The target of series [2] is Rec114C;Mei4N-ybbR (Saccharomyces cerevisiae;Saccharomyces cerevisiae) (UniProt P32841). As to conditions: C50, unlabeled; EMSA: 25 mM Tris-HCl pH 7.4, 100 mM NaCl, 5 ng DNA, 20 min, room temperature; AFM: 25 mM HEPES-NaOH pH 7.4, 5 mM MgCl2, 50 mM NaCl, 10% glycerol, 30 min, RT ….
Series [3] concerns the target Rec114(386-428);Mei4N (Saccharomyces cerevisiae;Saccharomyces cerevisiae) (UniProt P29467). As to conditions: EMSA: 25 mM Tris-HCl pH 7.4, 100 mM NaCl, 5 ng DNA, 20 min, room temperature; AFM: 25 mM HEPES-NaOH pH 7.4, 5 mM MgCl2, 50 mM NaCl, 10% glycerol, 30 min, RT ….
Another series concerns the target T1, Rec114C;Mei4N (Saccharomyces cerevisiae;Saccharomyces …, UniProt P32841;P29467 375-428;1-43, |).
T1 sequence 1: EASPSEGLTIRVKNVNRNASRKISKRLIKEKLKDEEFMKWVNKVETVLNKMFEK
T1 sequence 2: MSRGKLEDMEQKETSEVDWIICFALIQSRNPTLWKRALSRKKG
The following applies: EMSA: 25 mM Tris-HCl pH 7.4, 100 mM NaCl, 5 ng DNA, 20 min, room temperature, AFM: 25 mM HEPES-NaOH pH 7.4, 5 mM MgCl2, 50 mM NaCl, 10% glycerol, 30 min, RT ….

The target of series [4] is Rec114(388-428);Mei4N (Saccharomyces cerevisiae;Saccharomyces cerevisiae) (UniProt P29467). The following applies: EMSA: 25 mM Tris-HCl pH 7.4, 100 mM NaCl, 5 ng DNA, 20 min, room temperature; AFM: 25 mM HEPES-NaOH pH 7.4, 5 mM MgCl2, 50 mM NaCl, 10% glycerol, 30 min, RT ….
The target of series [5] is Rec114(388-428) K417A/K424A;Mei4N (Saccharomyces cerevisiae;Saccharomyces cerevisiae) (UniProt P29467). The following applies: EMSA: 25 mM Tris-HCl pH 7.4, 100 mM NaCl, 5 ng DNA, 20 min, room temperature; AFM: 25 mM HEPES-NaOH pH 7.4, 5 mM MgCl2, 50 mM NaCl, 10% glycerol, 30 min, RT ….
Series [6] addresses Rec114(388-428) K399A/R400A;Mei4N (Saccharomyces cerevisiae;Saccharomyces cerevisiae) (UniProt P29467). As to conditions: EMSA: 25 mM Tris-HCl pH 7.4, 100 mM NaCl, 5 ng DNA, 20 min, room temperature; AFM: 25 mM HEPES-NaOH pH 7.4, 5 mM MgCl2, 50 mM NaCl, 10% glycerol, 30 min, RT ….
Series [7] concerns Rec114(388-428);Mei4(13-43) (Saccharomyces cerevisiae;Saccharomyces cerevisiae). As to conditions: EMSA: 25 mM Tris-HCl pH 7.4, 100 mM NaCl, 5 ng DNA, 20 min, room temperature; AFM: 25 mM HEPES-NaOH pH 7.4, 5 mM MgCl2, 50 mM NaCl, 10% glycerol, 30 min, RT ….
Series [8] concerns the target Rec114C;Mei4N-ybbR-LD650 (Saccharomyces cerevisiae;Saccharomyces cerevisiae) (UniProt P32841). The following applies: C50, single experiment; EMSA: 25 mM Tris-HCl pH 7.4, 100 mM NaCl, 5 ng DNA, 20 min, room temperature; AFM: 25 mM HEPES-NaOH pH 7.4, 5 mM MgCl2, 50 mM NaCl, 10% glycerol, 30 min, RT ….
In series [9] the test system is Rec114(325-428);Mei4(1-90) (Saccharomyces cerevisiae;Saccharomyces cerevisiae). As to conditions: EMSA: 25 mM Tris-HCl pH 7.4, 100 mM NaCl, 5 ng DNA, 20 min, room temperature; AFM: 25 mM HEPES-NaOH pH 7.4, 5 mM MgCl2, 50 mM NaCl, 10% glycerol, 30 min, RT ….
In series [10] the target is Rec114(388-428) R395A/K396A;Mei4N (Saccharomyces cerevisiae;Saccharomyces cerevisiae) (UniProt P29467). As to conditions: EMSA: 25 mM Tris-HCl pH 7.4, 100 mM NaCl, 5 ng DNA, 20 min, room temperature; AFM: 25 mM HEPES-NaOH pH 7.4, 5 mM MgCl2, 50 mM NaCl, 10% glycerol, 30 min, RT ….
Series [11] has as its target T2, Rec114C (Saccharomyces cerevisiae) (UniProt P32841).
T2 sequence: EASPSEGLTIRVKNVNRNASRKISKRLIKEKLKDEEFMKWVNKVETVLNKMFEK
As to conditions: C50, single experiment; main text ~300-400 nM; concentration as dimer; EMSA: 25 mM Tris-HCl pH 7.4, 100 mM NaCl, 5 ng DNA, 20 min, room temperature; AFM: 25 mM HEPES-NaOH pH 7.4, 5 mM MgCl2, 50 mM NaCl, 10% glycerol, 30 min, RT ….

In the case of 150-bp DNA, the K half in [1] came to 1000 nM; in series [2], 90 nM; in [3], 110 nM; in the series with Rec114C;Mei4N it was 90 nM; in series [4], 110 nM; in series [5], 900 nM. Further, the K half in [6] amounted to 2000 nM; in [7], 100 nM; in series [8], 90 nM; in [9], 90 nM; in series [10], 1000 nM.

Turning to 1000-bp DNA, the K half in series [11] amounted to 300 nM; with Rec114C;Mei4N (C50) it was 80 nM.
